Results on two molecules are retold here after article PMC8026907.

Common to all, as to details: protein: recombinant; tags: His-tag (pET-3a); chain copies: 2; blunt
Data set [1] deals with T1, CRP-MTB (cAMP receptor protein, wild type) (Mycobacterium tuberculosis, UniProt P9WMH3 1-224).
T1 sequence: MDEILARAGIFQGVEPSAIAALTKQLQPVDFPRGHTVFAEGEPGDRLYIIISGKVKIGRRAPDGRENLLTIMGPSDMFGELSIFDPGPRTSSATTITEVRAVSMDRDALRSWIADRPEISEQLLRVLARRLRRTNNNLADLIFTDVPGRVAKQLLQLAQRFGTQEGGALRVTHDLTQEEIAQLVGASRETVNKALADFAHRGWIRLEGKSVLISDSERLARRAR
Put plainly: fluorescence anisotropy; 1 mM cAMP. (Polarisation of emitted light reports the rotation of a fluorescent probe.)

The target of data set [2] is T1, CRP-MTB (cAMP receptor protein, wild …). Put plainly: fluorescence anisotropy; 0.1 mM cAMP.
Data set [3] has the same target. Put plainly: fluorescence anisotropy; no cAMP (apo).

B1: SerC promoter 32-bp, fluorescein (dsDNA)
DNA 1: GCGCGTAGTGTGAACAAGCTCACATGCAAGCC
DNA 2: GGCTTGCATGTGAGCTTGTTCACACTACGCGC
For the molecule B1, the results for the Ka in data set [1], in data set [2] and in data set [3] were 4.2 ± 1.7 1e8 M-1, 4.5 ± 1.2 1e8 M-1 and 2.3 ± 0.9 1e8 M-1, respectively.

B2: SerC promoter 20-bp, fluorescein (dsDNA)
DNA 1: AGTGTGAACAAGCTCACATG
DNA 2: CATGTGAGCTTGTTCACACT
As for B2, the Ka was 0.5 ± 0.1 1e8 M-1 in data set [1] and 0.12 ± 0.02 1e8 M-1 in data set [3].
